Earlier results, collected in article PMC8335159.

Key:
[1] = biological target: TIMP-3 cyclic peptide 60-70 (Homo sapiens)
[2] = biological target: TIMP-3 cyclic peptide 61-70 (Homo sapiens)
[3] = biological target: TIMP-3 cyclic peptide 62-68 (Homo sapiens)
[4] = biological target: VWF peptide 1660-1668 (Homo sapiens) (UniProt P04275)

Kd [1] [µM] | Kd [2] [µM] | Kd [3] [µM] | Ki [4] [µM] | Substance
18 | 3.7 | 25 |  | ADAM-17 (from UniProt P78536)
 |  |  | 1 | ADAMTS-13 (from UniProt Q76LX8)
